Measurements reported in patent publication US12365732.
Substitutions are numbered along the chain they refer to.

B1: mAb1.v7.NGS10 IgG (antibody, V domains shown)
VH: EVQLVQSGAEVKKPGASVKVSCKASGFTFTNNFMHWVRQAPGQGLEWIGFIHANSGITNINEKFKNRVTMTTDTSTSTAYMELRSLRSEDTAVYYCRSDGIYEGYFDYWGQGTLVTVSS
VL: DIQLTQSPSSLSASVGDRVTITCKASQNVGTAIVWYQQKPGKAPKVLIYSASTRYTGVPSRFSGSGSGTDFTLTISSLQPEDFATYYCQQYSSSPLTFGQGTKVEIKG
B2: h10G1 IgG (humanized 10G1) (antibody, V domains shown)
VH: EIQLVQSGSELKKPGASVKVSCKASGYPFTTYGMSWVRQAPGQGLEWMGWINTDSGVPTYADDFKGRFVFSLDTSVSTAYLQISSLKAEDTAVYFCARNIYYGWGNFDYWGQGTLVTVSS
VL: EIVMTQSPDFQSVTPKEKVTITCRASQDIYRNLHWYQQKPDQTPKLLIKHASDSISGIPSRFSGSGSGTDFTLTINSLEAEDAAAYYCLQGYSMPYTFGGGTKVEIKG
B3: mAb1.v7.NGS8 IgG (antibody, V domains shown)
VH: B1 VH with F50M
VL: B1 VL
B4: mAb1.v7.NGS9 IgG (antibody, V domains shown)
VH: B1 VH with F50M, I101V
VL: B1 VL
B5: mAb1.v7.NGS11 IgG (antibody, V domains shown)
VH: B1 VH with I101V
VL: B1 VL

Target: human CD96 on primary human immune cells (PBMCs, NK cells, CD4+ T cells) (human) (UniProt P40200)
Experiment: FACS, Ab 0.00512 nM

Compared with B1, B2 is lower in % positive: 6.1% for the first, 5.4% for the second.

Compared with B3, B4 is lower in % positive: 8.6% for the first, 8.2% for the second.

B5 was tested, and the % positive was 5.4%.

Target: human CD96 on primary human immune cells (PBMCs, NK cells, CD4+ T cells) (human) (UniProt P40200)
Experiment: FACS, Ab 0.64 nM

Compared with B1, B2 is lower in % positive: 88.8% for the first, 53.5% for the second.

Going from B3 to B4, the % positive rises from 89.3% to 90.8%.

Binder B5 has a % positive of 89.7%.

Target: human CD96 on primary human immune cells (PBMCs, NK cells, CD4+ T cells) (human) (UniProt P40200)
Experiment: FACS, Ab 0.0256 nM

First: B1
Second: B2
The % positive of the first is higher: 16.9% for the first, 14.6% for the second.

Going from B3 to B4, the % positive rises from 22% to 22.5%.

With B5 the % positive was 11.6%.

Target: human CD96 on primary human immune cells (PBMCs, NK cells, CD4+ T cells) (human) (UniProt P40200)
Experiment: FACS, Ab 16 nM

Compared with B1, B2 is lower in % positive: 97.1% for the first, 81.4% for the second.

Going from B3 to B4, the % positive rises from 96.2% to 97.1%.

B5 showed a % positive of 96.7%.

Target: human CD96 on primary human immune cells (PBMCs, NK cells, CD4+ T cells) (human) (UniProt P40200)
Experiment: FACS, Ab 0.128 nM

Going from B1 to B2, the % positive falls from 66.7% to 39.1%.

Compared with B3, B4 is higher in % positive: 64.2% for the first, 64.7% for the second.

Binder B5 has a % positive of 61.1%.

Target: human CD96 on primary human immune cells (PBMCs, NK cells, CD4+ T cells) (human) (UniProt P40200)
Experiment: FACS, % positive curve

Going from B1 to B2, the EC50 rises from 69 pM to 280 pM (4.1-fold). The first is the more potent here.

B3 and B4 are within 1.5-fold of each other in EC50: 72 pM for the first, 71 pM for the second.

In the case of B5, the EC50 is reported as 83 pM.

Target: human CD96 on primary human immune cells (PBMCs, NK cells, CD4+ T cells) (human) (UniProt P40200)
Experiment: cell-based or functional assay

B1 and B2 are the same in Human NK cell IFNγ secretion (fold over background), Ab 0.0032 nM: 1 fold for the first, 1 fold for the second.

First: B1
Second: B2
The Human NK cell IFNγ secretion (fold over background), Ab 0.016 nM of the first is higher: 1.24 fold for the first, 1.13 fold for the second.

Compared with B1, B2 is higher in Human NK cell IFNγ secretion (fold over background), Ab 0.08 nM: 1.36 fold for the first, 1.38 fold for the second.

Going from B1 to B2, the Human NK cell IFNγ secretion (fold over background), Ab 0.4 nM rises from 1.81 fold to 1.96 fold.

Going from B1 to B2, the Human NK cell IFNγ secretion (fold over background), Ab 2 nM falls from 2.12 fold to 2.08 fold.

Going from B1 to B2, the Human NK cell IFNγ secretion (fold over background), Ab 10 nM rises from 1.94 fold to 2.19 fold.

Going from B1 to B2, the Human NK cell IFNγ secretion (fold over background), Ab 50 nM rises from 2.05 fold to 2.21 fold.

B1 and B2 are the same in Human NK cell IFNγ secretion (fold over background), Ab 250 nM: 1.87 fold for the first, 1.87 fold for the second.

B1 and B2 are within 1.5-fold of each other in Human NK cell IFNγ secretion, EC50: 84 pM for the first, 112 pM for the second.

Target: human CD96 on primary human immune cells (PBMCs, NK cells, CD4+ T cells) (human) (UniProt P40200)
Experiment: FACS, Ab 3.2 nM

Going from B1 to B2, the % positive falls from 93.8% to 64.4%.

First: B3
Second: B4
The % positive of the first is lower: 92.3% for the first, 95.1% for the second.

B5 showed a % positive of 94.2%.

Target: human CD96 on primary human immune cells (PBMCs, NK cells, CD4+ T cells) (human) (UniProt P40200)
Experiment: FACS, Ab 80 nM

First: B1
Second: B2
The % positive of the first is higher: 97.7% for the first, 88.7% for the second.

B3 and B4 are the same in % positive: 97.8% for the first, 97.8% for the second.

B5 showed a % positive of 97.2%.
